In one series the test system is HT-29 tumors. The experiment in a line: Combination of DPV1047-BCH-SN38 with 5-FU or bevacizumab in the HT-29 tumor model. The note with it: 5-FU 40 mg/kg i.v. or bevacizumab 2 mg/kg i.p.
Series [1] concerns NCI-H460 human epithelial lung carcinoma cells. The experiment in a line: In vitro cytotoxicity (WST-1 cell viability). The format is cell-based. The note with it: Homo sapiens, NCI-H460, 48 h, read-out: Drug concentration that inhibits 50% of cell viability (IC50), NCI-H460. The procedure:
(§1) Cytotoxic evaluation was performed by seeded cells for 24 h prior to the addition of the therapeutic compound. Cells were incubated for 48 h (37° C.) with different dilutions of the therapeutic compound. Cell viability was then assessed using the WST-1 assay (Roche). The results are expressed as mean cytotoxic concentrations (IC50 value or molar concentration that inhibits 50% of cell viability) that were estimated from sigmoid regression, using Graph Pad Prism 3.02 software.
NCI-H460 (ATCC#: HTB-177): human epithelial lung carcinoma cells. Cells were cultured in RPMI 1640+glutamax and 10% of fetal bovine serum. Cells were plated at a density of 10,000 cells/well in 96-well plates.

In series [2] the test system is HCT 116 human epithelial colon carcinoma cells. Description: cells. It is filed as cell-based. How it is done:
as §1
HCT 116 (ATCC #: CCL-247): human epithelial colon carcinoma cells. Cells were cultured in Mc Coy's 5a medium+1.5 mM L-glutamine and 10% fetal bovine serum. Cells were plated at a density of 8000 cells/well in 96-well plates.

Series [3] can be described thus: Stability of conjugates in citrated plasma at 37° C. (half life time, HPLC fluorescence). The format is in vitro ADME, human. The note with it: human, plasma. How it is done: (§2) The stability of the conjugates was tested in citrated plasma (10% (v/v) sodium citrate buffer, 0.106M) from different species (see Table 1 below). The conjugates at 2.55 μM were incubated at 37° C. in plasma. Samples were analysed using the HPLC fluorescence method described below (see chromatographic equipment and conditions) following TFA/acetonitrile extraction and the amount of free camptothecin, analogs or derivatives thereof (e.g. SN38) released by the conjugates was measured.
(§3) Chromatographic equipment and conditions: 150 μL of each sample were placed in 1.5 mL micro-centrifuge tubes. 450 μL of 5% (v/v) TFA in H2O was added to each tube and the mixture was vortexed for 5 seconds. Samples were then centrifuged at 16000 g, 3 minutes at +4° C. 100 μL of supernatant were placed in 1.5 mL micro-centrifuge tubes. Methanol (100 μL) was then immediately added and vortexed for 5 seconds. Samples were then centrifuged at 16000 g, 3 minutes at room temperature. 150 μL of supernatant were recovered for HPLC analysis. Conjugates, metabolites and camptothecin derivative (i.e. SN38) were separated by high-performance liquid chromatography (HPLC; Agilent 1100 series equipped with a fluorescence detector) using a 4.6×100 mm ([…] particle size) Luna C18(2) column (Phenomenex ref. 00D-4251-E0, Le Pecq, France). The aqueous component of the mobile phase (A) was 0.1% (v/v) TFA in water. The organic modifier (B) was acetonitrile containing 0.1% (v/v) TFA. For the conjugate and its metabolites an elution gradient increasing linearly the proportion of B from 15 to 37% in 2 min, from 37 to 47% in 6 min, followed by 2 min at 90% was applied with a constant flow rate of 1.2 mL/min. The proportion of B was then returned to the initial condition for 3.0 min.
(§4) The half life time of conjugate corresponds to the time necessary to have 50% by mole of free camptothecin, analogs or derivatives thereof released by the conjugates of the invention. In human plasma, the half life time of conjugate DPV1047-linker #1-SN38 (less than 5 mins) was shorter than that of conjugate DPV1047-linker #2-SN38 (6-7 mins), which, in turn, was shorter than that of conjugate DPV1047-linker #3-SN38 (12 mins).
(§5) As in Example II, the stability of these conjugates was tested in either human or dog plasma. Following incubation at 37° C., samples were analyzed after a TFA acetonitrile extraction by the HPLC fluorescence method described in Example II. The in vitro cytotoxicity (IC50) of these compounds was also evaluated.

Test in series [4]: as above
It is filed as in vitro ADME. The settings on record: dog. The procedure:
as §2, §3, §4, §5

Test in series [5]: as above
The note with it: DPV1047-linker-SN38, 2.55 μM. The format is in vitro ADME. How it is done:
as §2, §3, §4

Where [6] appears, read: line of DPV1047-BCH-SN38 12.5 μmol/kg.
Where [7] appears, read: line of DPV1047-BCH-SN38 25 μmol/kg.
The mark [8] stands for this setting: DPV1047-linker-SN38, 2.55 μM, citrated plasma, read-out: Half life time, Human plasma.
Setting [9] is: DPV1047-linker-SN38, 2.55 μM, citrated plasma, read-out: Half life time, Dog plasma.
The mark [10] stands for this setting: time to 50% by mole free SN38 released, read-out: Half life time, Mouse plasma.

Like-named read-outs stand apart in the source and are kept apart here. Where a SMILES comes first, the peptide text is derived from it. The star is where a group is joined. X2 = CCc1c2c(nc3ccc(OC(=O)[C@H]4CC[C@H](CNC(=O)CCCCCNC(=O)C5CCC(CN6C(=O)CC(*)C6=O)CC5)CC4)cc13)-c1cc3c(c(=O)n1C2)COC(=O)[C@]3(O)CC; X3 = CCc1c2c(nc3ccc(OC(=O)CCCCCNC(=O)C4CCC(CN5C(=O)CC(*)C5=O)CC4)cc13)-c1cc3c(c(=O)n1C2)COC(=O)[C@]3(O)CC

Protocol for HT-29 tumors: Mice were implanted with HT-29 tumors and treated by intraperitoneal administration (bevacizumab) or bolus intravenous injection (5-FU or DPV1047-BCH-SN38) at 10 μL/g. […] The T/C ratio was calculated following treatment with either bevacizumab, 5-FU or DPV1047-BCH-SN38. These T/C ratios were used to evaluate the expected T/C for combined treatment with bevacizumab and DPV1047-BCH-SN38, or 5-FU and DPV1047-BCH-SN38 (T/C of DPV1047-BCH-SN38×T/C of bevacizumab or 5-FU). […] The combination index of the two molecules was calculated by dividing the expected T/C by the observed T/C.

As for `O=c1[nH]cc(F)c(=O)[nH]1` [5-FU, 5-fluorouracil, reference compound], the “Single treatment Reference drug T/C %” value worked out at 90% in the series with HT-29 tumors (setting [6]) and 94% in the series with HT-29 tumors (setting [7]).

Consider `CC[C@@]1(O)C(=O)OCc2c1cc1n(c2=O)Cc2cc3cc(O)ccc3nc2-1` [10-Hydroxycamptothecin, reference compound], for which the IC50 in series [1] turned out to be 21 nM; in series [2] (Homo sapiens, HCT-116, 48 h, read-out: Drug concentration that inhibits 50% of cell viability (IC50), HCT 116), 64 nM.

As for `CCc1c2c(nc3ccc(OC(=O)[C@H]4CC[C@H](CNC(=O)C5CCC(CN6C(=O)CC(SCC(N)C(=O)N[C@@H](C(=O)N[C@H](CCCCN)C(=O)N[C@H](CCCNC(=N)N)C(=O)NCC(=O)N[C@H](CC(C)C)C(=O)N[C@H](CCCCN)C(=O)N[C@H](CC(C)C)C(=O)N[C@H](CCCNC(=N)N)C(=O)N[C@H](Cc7c[nH]cn7)C(=O)N[C@@H](C(=O)N[C@H](CCCNC(=N)N)C(=O)N7CCC[C@@H]7C(=O)N[C@H](CCCNC(=N)N)C(=O)N[C@@H](C(=O)N[C@@H](C(=O)N[C@H](CCCNC(=N)N)C(=O)N[C@H](CCSC)C(=O)N[C@H](CC(=O)O)C(=O)N[C@@H](C(=O)O)C(C)C)[C@H](C)O)C(C)C)C(C)C)C(C)C)C6=O)CC5)CC4)cc13)-c1cc3c(c(=O)n1C2)COC(=O)[C@]3(O)CC` (stereo partly shown) [DPV1047(D)-linker #5-SN38], the half-life in series [3] (Table 12, CPP-linker #5-SN38 conjugates incl. D conformation, read-out: Human Plasma Half life time) was determined as 1.83 h; in series [4] (Table 12, CPP-linker #5-SN38 conjugates incl. D conformation, read-out: Dog Plasma Half life time), 2.75 h. Besides, the IC50 in series [2] (48 h) was 23 nM.

As for `CCc1c2c(nc3ccc(OC(=O)CCCCCNC(=O)C4CCC(CN5C(=O)CC(SC[C@H](N)C(=O)N[C@H](C(=O)N[C@@H](CCCCN)C(=O)N[C@@H](CCCNC(=N)N)C(=O)NCC(=O)N[C@@H](CC(C)C)C(=O)N[C@@H](CCCCN)C(=O)N[C@@H](CC(C)C)C(=O)N[C@@H](CCCNC(=N)N)C(=O)N[C@@H](Cc6c[nH]cn6)C(=O)N[C@H](C(=O)N[C@@H](CCCNC(=N)N)C(=O)N6CCC[C@H]6C(=O)N[C@@H](CCCNC(=N)N)C(=O)N[C@H](C(=O)N[C@H](C(=O)N[C@@H](CCCNC(=N)N)C(=O)N[C@@H](CCSC)C(=O)N[C@@H](CC(=O)O)C(=O)N[C@H](C(=O)O)C(C)C)[C@@H](C)O)C(C)C)C(C)C)C(C)C)C5=O)CC4)cc13)-c1cc3c(c(=O)n1C2)COC(=O)[C@]3(O)CC` (stereo partly shown) [DPV1047-linker #4-SN38] (H-C(X3)VKRGLKLRHVRPRVTRMDV-OH), the half-life is 0.667 h in series [3] (setting [8]); 1.75 h in series [4] (setting [9]); under 0.05 h in series [5] (setting [10]); 0.5 h in series [5] (monkey); 0.05 h in series [5] (rat).

As for `CCc1c2c(nc3ccc(OC(=O)[C@H]4CC[C@H](CNC(=O)CCCCCNC(=O)C5CCC(CN6C(=O)CC(SC[C@H](N)C(=O)N[C@H](C(=O)N[C@@H](CCCCN)C(=O)N[C@@H](CCCNC(=N)N)C(=O)NCC(=O)N[C@@H](CC(C)C)C(=O)N[C@@H](CCCCN)C(=O)N[C@@H](CC(C)C)C(=O)N[C@@H](CCCNC(=N)N)C(=O)N[C@@H](Cc7c[nH]cn7)C(=O)N[C@H](C(=O)N[C@@H](CCCNC(=N)N)C(=O)N7CCC[C@H]7C(=O)N[C@@H](CCCNC(=N)N)C(=O)N[C@H](C(=O)N[C@H](C(=O)N[C@@H](CCCNC(=N)N)C(=O)N[C@@H](CCSC)C(=O)N[C@@H](CC(=O)O)C(=O)N[C@H](C(=O)O)C(C)C)[C@@H](C)O)C(C)C)C(C)C)C(C)C)C6=O)CC5)CC4)cc13)-c1cc3c(c(=O)n1C2)COC(=O)[C@]3(O)CC` (stereo partly shown) [DPV1047-linker #7-SN38] (H-C(X2)VKRGLKLRHVRPRVTRMDV-OH; N-terminus and C-terminus assumed), the half-life in series [3] (setting [8]) is 2.5 h; in series [4] (setting [9]) it was 2.75 h; in series [5] (setting [10]), under 0.05 h; in series [5] (monkey) it was 1.5 h; in series [5] (rat), 0.15 h.

“bevacizumab: bevacizumab (Avastin®, Roche)”: the “Single treatment Reference drug T/C %” value with HT-29 tumors (setting [6]) and with HT-29 tumors (setting [7]) was 67% in each case.

The record behind these values is patent publication US8410045B2, “Camptothecin-peptide conjugates and pharmaceutical compositions containing the same” (Drais Pharmaceuticals, Inc., priority 2006, dated 2013).
